Each block holds one molecule with its values, some of them ahead of it.
How the values were obtained:
hTNFα = hTNFα (Homo sapiens, UniProt P01375); test: TNF-alpha dependent cell-based caspase assay (Caspase-Glo 3/7) on WEHI 13VAR cells; design: species or system mouse; details: 20 kDa PEG, protease 50 and 100 µg/ml, hTNFα 1 ng/ml, 4 h, 37 °C
Method: (§1) • Figure 1: Mass spectrometric verification of the proteolytic cleavage site of TNF-alpha. TNF-alpha was digested at a concentration of 1 mg/ml with protease variant E for 1 h at 37 °C in PBS buffer. The short fragment of the cleavage reaction was isolated on a C18-reversed phase HPLC-column and the collected fraction electrosprayed into the orifice of the ion-trap mass spectrometer. • Figure 2: Deconvoluted mass spectrometric analysis. The small cleavage product has been isolated and the determined mass represents the first 32 amino acids of SEQ ID NO: 11, confirming the targeted cleavage site. • Figure 3: Inactivation of recombinant human TNF-alpha activity by a panel of variants in a cell-based caspase assay. […] Detection of hTNFα-induced caspase activation was measured by a luminescence based read-out. […] (A) depicts maximal detected inactivation of hTNFα; (B) depicts dose dependency of the effects of the hTNFα specific protease. • Figure 4: Effect of pegylation on activity. […] The activity of the resulting pegylated protease was assessed against a recombinant hTNFα (A) or by a caspase assay that measures levels of remaining TNF-alpha activity following digestion of the cytokine by the protease (B). […] Cleavage is assessed by following the changes in the fluorescent signal. […] Efficacy was determined by using a standard clinical scoring system for ankle joint inflammation. […]

synthetic peptide = test: Activity assay of pegylated versus non-pegylated protease against a synthetic peptide (Fig. 4A); type: biochemical; details: 20 kDa PEG; synthetic peptide / recombinant hTNFα
Method: as §1

[1] = test system: human TNF-alpha transgenic mouse model of arthritis; test: Efficacy in human TNF-alpha transgenic mouse model of arthritis (Tg197); type: in vivo; details: Tg197 mice, six weeks old, established disease; 50 mg/kg intraperitoneally three times per week for five weeks
Method: as §1

transmembrane TNF-alpha = biological target: T1, transmembrane TNF-alpha (Homo sapiens, UniProt P01375, DEL77-88); test: Membrane-bound TNF-alpha assay: cell line expressing non-cleavable TNF plus reporter cells, apoptosis read-out; type: cell-based; details: incubation at different concentrations for 4 h, then reporter cell line added
T1 construct: The transmembrane TNF induces apoptosis in these TNF-susceptible cells; expressed in transfected cells
T1 sequence (P01375 with tags, fused parts or gaps DEL77-88): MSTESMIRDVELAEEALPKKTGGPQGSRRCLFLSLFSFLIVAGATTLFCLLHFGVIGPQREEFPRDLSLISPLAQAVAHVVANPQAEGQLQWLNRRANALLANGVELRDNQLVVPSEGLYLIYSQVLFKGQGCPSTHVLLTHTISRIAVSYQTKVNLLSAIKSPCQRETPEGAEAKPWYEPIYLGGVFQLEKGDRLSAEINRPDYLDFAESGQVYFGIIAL

hTNFα, sequence (P01375 77-233 limits assumed): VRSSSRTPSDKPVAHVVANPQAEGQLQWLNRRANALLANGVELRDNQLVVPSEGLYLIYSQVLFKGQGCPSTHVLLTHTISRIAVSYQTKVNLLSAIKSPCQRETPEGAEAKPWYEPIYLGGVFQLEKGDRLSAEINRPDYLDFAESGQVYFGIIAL

remaining TNF-alpha activity after digestion, pegylated compared with non-pegylated variant (Fig. 4B) (hTNFα): slight reduction in specific activity
B1: pegylated variant E: Variant E modified by chemical attachment of 20 kDa poly(ethyleneglycol) (conjugate)
chain: IVGGYDCEENSVPYHVSLNSGSNSTTICGGALINEQWVVTAGHCYAFFPADKSRIQVRLGVHSTGALEGNEQIINAAKIIRHPQYDWKTLNNDIMLIKLSSPAVINAHVSTISLPTAPPATGTKCLISGWGNSKDPYKPSSRADYPGEVQCLDAPVLSQTKCEASYPGKITSNMFCAGFLEGGKDSCQGDSGGPVVHNGQLQGVVSWGEGCAQKNKPGVYTNVYNYVEWIQDTIAANS
activity of pegylated protease compared with non-pegylated variant (Fig. 4A) (synthetic peptide): slight reduction in specific activity | clinical score for ankle joint inflammation (arthritis score 0 to 3) [1]: Efficacy of pegylated TNF-alpha specific protease variant E is demonstrated

inactivation of transmembrane TNF-alpha (inhibition of apoptosis of reporter cells) (transmembrane TNF-alpha): do not inhibit apoptosis
B2: pegylated variant G: variant G pegylated with 20 kD methoxy-poly(ethyleneglycol) derivative on lysine residues (conjugate)
chain: IVGGYDCEENSVPYHVSLNSDSNSTTICGGALINEQWVVTAGHCYSFLPLDKSRIQVRLGVHSTGALEGNEQIINAAKIIRHPQYDWKTLNNDIMLIKLSSPAVINAHVSTISLPTAPPATGTKCLISGWGNSKDPYKPSSGPSTADYPGEVQCLDAPVLSQTKCEASYPGKITSNMFCAGFLEGGKDSCQGDSGGPVVHNGQLQGVVSWGEGCAQKNKPGVYTNVYNYVEWIQDTIAANS
